According to PMC13374049 (Cell host & microbe, 2026):

B1: human anti-MeV H monoclonal antibody 4D08 (IgG1) (antibody, V domains shown)
VH: QMQLVQSGAEVKKPGASVKVSCKASGYTFTSYAMHWVRQAPGQRLEWMGWINAGNGKTEYSQRFQGRVTITRDTSASTVYMELNSLRSEDTAVYFCARDAYDFWSGYGNWGSNYYYFYMDAWGKGTTVTVSS
VL: EIVMTQSPPSLSASVGDRVTITCRASQSINYYLNWYQQKPGKAPKLLIYAASGLQSGVPSRFSGSGSGTDFTLTISSLQPEDLATYYCQQTYSTPVTFGQGTKLEII
B2: human anti-MeV H monoclonal antibody 1C02 (IgG1) (antibody, V domains shown)
VH: EVQLLESGAEVKKPGSSVKVSCKASGGTFSSYGISWVRQAPGQGLEWMGGIIPIFGTANYAQKFRGRVTITADKSTSTAYMELSSLRSEDTAVYYCARERITVAGINYYYGMDVWGQGTTVTVSS
VL: RPVLTQPPSVSGAPGQRVTISCTGSSSNIGAGYDVHWYQQLPGTAPKLLIYGDSNRPSGVPDRFSGSKSGTSASLAITGLQAEDEADYYCQSYDSSLSGVVFGGGTKLTVL

Target: full-length Measles virus hemagglutinin (H) on transfected HEK293T cells (Measles virus, strain IC323, UniProt Q786F2)
Test: flow cytometry on cells

full-length Measles virus hemagglutinin (H) on transfected HEK293T cells, sequence (Q786F2 whole entry): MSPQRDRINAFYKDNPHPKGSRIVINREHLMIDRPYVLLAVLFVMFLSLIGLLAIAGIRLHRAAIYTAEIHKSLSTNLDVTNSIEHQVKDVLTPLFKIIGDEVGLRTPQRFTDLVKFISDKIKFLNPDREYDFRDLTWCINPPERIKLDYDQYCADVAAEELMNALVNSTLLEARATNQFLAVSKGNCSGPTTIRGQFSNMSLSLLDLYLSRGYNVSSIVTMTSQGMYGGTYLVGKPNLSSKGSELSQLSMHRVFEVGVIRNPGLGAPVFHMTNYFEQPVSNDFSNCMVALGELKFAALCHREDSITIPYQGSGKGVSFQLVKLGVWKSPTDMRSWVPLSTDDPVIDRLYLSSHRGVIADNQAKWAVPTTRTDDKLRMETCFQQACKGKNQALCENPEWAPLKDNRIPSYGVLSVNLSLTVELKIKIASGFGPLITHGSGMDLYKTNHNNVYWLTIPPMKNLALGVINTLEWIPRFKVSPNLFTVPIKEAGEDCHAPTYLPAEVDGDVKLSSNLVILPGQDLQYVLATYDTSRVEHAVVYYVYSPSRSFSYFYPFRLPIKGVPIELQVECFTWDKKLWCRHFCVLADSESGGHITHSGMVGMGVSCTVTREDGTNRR

Row | Binder | binding result
1 | B1 | binds
2 | B2 | binds
